Experimental data taken from patent US20140087995A1 (published 2014).
Numbered stars: 1 amine (or outer) side, 2 acyl side, 3 side chain; on linkers, the order of the positions; unused ones are H or OH. Bridge positions count the residues as written; N and C are the ends. Side chains are listed from the residue outwards. Ends that are not written are not given here. * marks the point of attachment. C20 diacid = O=C(O)CCCCCCCCCCCCCCCCCCC(=O)*; γGlu = O=C(O)[C@H](CCC(=O)[*:2])N[*:1]; AEEA = NCCOCCOCC(=O)O

T1: human amylin 3(a) receptor (human calcitonin receptor co-expressed with RAMP-3) (human, UniProt P30988 25-474; O60896 24-148, limits assumed)
T1 sequence (looked up) 1: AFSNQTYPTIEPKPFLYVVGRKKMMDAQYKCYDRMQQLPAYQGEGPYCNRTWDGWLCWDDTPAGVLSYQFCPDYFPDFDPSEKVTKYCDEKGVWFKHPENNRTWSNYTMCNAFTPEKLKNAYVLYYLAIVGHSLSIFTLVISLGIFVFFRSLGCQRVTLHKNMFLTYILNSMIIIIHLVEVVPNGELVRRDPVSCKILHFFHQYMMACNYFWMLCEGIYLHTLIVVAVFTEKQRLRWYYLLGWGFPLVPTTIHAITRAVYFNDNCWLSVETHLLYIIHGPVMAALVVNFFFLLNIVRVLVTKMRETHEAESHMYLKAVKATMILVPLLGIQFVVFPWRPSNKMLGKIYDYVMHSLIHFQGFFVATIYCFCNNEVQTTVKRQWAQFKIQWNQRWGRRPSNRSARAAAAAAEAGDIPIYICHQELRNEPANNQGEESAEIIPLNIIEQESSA
T1 sequence (looked up) 2: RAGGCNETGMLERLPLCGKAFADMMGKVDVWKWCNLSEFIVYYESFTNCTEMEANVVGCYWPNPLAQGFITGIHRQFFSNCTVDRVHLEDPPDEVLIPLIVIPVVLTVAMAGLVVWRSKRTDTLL

T2: human calcitonin receptor (human, UniProt P30988 25-474)
T2 sequence (looked up): T1 sequence (looked up) 1

B1: N^α1-[(4S)-4-carboxy-4-[[(4S)-4-carboxy-4-(19-carboxynonadecanoylamino)butanoyl]amino]butanoyl]-[Glu14,Arg17,Pro21,Pro27]-h-amylin (peptide)
peptide: {C20 diacid-γGlu-γGlu}-KCNTATCATQRLAEFLRHSSPNFGAIPSSTNVGSNTY-NH2
modifications: disulfide 2-7
SMILES: CC[C@H](C)[C@H](NC(=O)[C@H](C)NC(=O)CNC(=O)[C@H](Cc1ccccc1)NC(=O)[C@H](CC(N)=O)NC(=O)[C@@H]1CCCN1C(=O)[C@H](CO)NC(=O)[C@H](CO)NC(=O)[C@H](Cc1c[nH]cn1)NC(=O)[C@H](CCCNC(=N)N)NC(=O)[C@H](CC(C)C)NC(=O)[C@H](Cc1ccccc1)NC(=O)[C@H](CCC(=O)O)NC(=O)[C@H](C)NC(=O)[C@H](CC(C)C)NC(=O)[C@H](CCCNC(=N)N)NC(=O)[C@H](CCC(N)=O)NC(=O)[C@@H](NC(=O)[C@H](C)NC(=O)[C@@H]1CSSC[C@H](NC(=O)[C@H](CCCCN)NC(=O)CC[C@H](NC(=O)CC[C@H](NC(=O)CCCCCCCCCCCCCCCCCCC(=O)O)C(=O)O)C(=O)O)C(=O)N[C@@H](CC(N)=O)C(=O)N[C@@H]([C@@H](C)O)C(=O)N[C@@H](C)C(=O)N[C@@H]([C@@H](C)O)C(=O)N1)[C@@H](C)O)C(=O)N1CCC[C@H]1C(=O)N[C@@H](CO)C(=O)N[C@@H](CO)C(=O)N[C@H](C(=O)N[C@@H](CC(N)=O)C(=O)N[C@H](C(=O)NCC(=O)N[C@@H](CO)C(=O)N[C@@H](CC(N)=O)C(=O)N[C@H](C(=O)N[C@@H](Cc1ccc(O)cc1)C(N)=O)[C@@H](C)O)C(C)C)[C@@H](C)O
notes: h-amylin derivative; disulfide bridge and C-terminal amide as told for human amylin; also called compound 15
B2: N^ε1-[2-[2-[2-[[(4S)-4-carboxy-4-(19-carboxynonadecanoylamino)butanoyl]amino]ethoxy]ethoxy]acetyl]-[Arg17,Pro21,Pro27,Pro28,Pro31]-h-amylin (peptide)
peptide: K([AEEA-γGlu-C20 diacid])CNTATCATQRLANFLRHSSPNFGAIPPSTPVGSNTY-NH2
modifications: disulfide 2-7
notes: h-amylin derivative; disulfide bridge and C-terminal amide as told for human amylin; also called compound 53
B3: N^ε1-[2-[2-[2-[[(4S)-4-carboxy-4-(19-carboxynonadecanoylamino)butanoyl]amino]ethoxy]ethoxy]acetyl]-[Arg17,Pro21,Pro27,Pro29,Pro34]-h-amylin (peptide)
peptide: K([AEEA-γGlu-C20 diacid])CNTATCATQRLANFLRHSSPNFGAIPSPTNVGPNTY-NH2
modifications: disulfide 2-7; N-terminus assumed
SMILES: CC[C@H](C)[C@H](NC(=O)[C@H](C)NC(=O)CNC(=O)[C@H](Cc1ccccc1)NC(=O)[C@H](CC(N)=O)NC(=O)[C@@H]1CCCN1C(=O)[C@H](CO)NC(=O)[C@H](CO)NC(=O)[C@H](Cc1c[nH]cn1)NC(=O)[C@H](CCCNC(=N)N)NC(=O)[C@H](CC(C)C)NC(=O)[C@H](Cc1ccccc1)NC(=O)[C@H](CC(N)=O)NC(=O)[C@H](C)NC(=O)[C@H](CC(C)C)NC(=O)[C@H](CCCNC(=N)N)NC(=O)[C@H](CCC(N)=O)NC(=O)[C@@H](NC(=O)[C@H](C)NC(=O)[C@@H]1CSSC[C@H](NC(=O)[C@@H](N)CCCCNC(=O)COCCOCCNC(=O)CC[C@H](NC(=O)CCCCCCCCCCCCCCCCCCC(=O)O)C(=O)O)C(=O)N[C@@H](CC(N)=O)C(=O)N[C@@H]([C@@H](C)O)C(=O)N[C@@H](C)C(=O)N[C@@H]([C@@H](C)O)C(=O)N1)[C@@H](C)O)C(=O)N1CCC[C@H]1C(=O)N[C@@H](CO)C(=O)N1CCC[C@H]1C(=O)N[C@H](C(=O)N[C@@H](CC(N)=O)C(=O)N[C@H](C(=O)NCC(=O)N1CCC[C@H]1C(=O)N[C@@H](CC(N)=O)C(=O)N[C@H](C(=O)N[C@@H](Cc1ccc(O)cc1)C(N)=O)[C@@H](C)O)C(C)C)[C@@H](C)O
notes: h-amylin derivative; disulfide bridge and C-terminal amide as told for human amylin; also called compound 56
B4: N^ε1-[2-[2-[2-[[(4S)-4-carboxy-4-(19-carboxynonadecanoylamino)butanoyl]amino]ethoxy]ethoxy]acetyl]-[Arg17,Pro21,Pro27,Pro31,His35]-h-amylin (peptide)
peptide: K([AEEA-γGlu-C20 diacid])CNTATCATQRLANFLRHSSPNFGAIPSSTPVGSHTY-NH2
modifications: disulfide 2-7; N-terminus assumed
SMILES: CC[C@H](C)[C@H](NC(=O)[C@H](C)NC(=O)CNC(=O)[C@H](Cc1ccccc1)NC(=O)[C@H](CC(N)=O)NC(=O)[C@@H]1CCCN1C(=O)[C@H](CO)NC(=O)[C@H](CO)NC(=O)[C@H](Cc1c[nH]cn1)NC(=O)[C@H](CCCNC(=N)N)NC(=O)[C@H](CC(C)C)NC(=O)[C@H](Cc1ccccc1)NC(=O)[C@H](CC(N)=O)NC(=O)[C@H](C)NC(=O)[C@H](CC(C)C)NC(=O)[C@H](CCCNC(=N)N)NC(=O)[C@H](CCC(N)=O)NC(=O)[C@@H](NC(=O)[C@H](C)NC(=O)[C@@H]1CSSC[C@H](NC(=O)[C@@H](N)CCCCNC(=O)COCCOCCNC(=O)CC[C@H](NC(=O)CCCCCCCCCCCCCCCCCCC(=O)O)C(=O)O)C(=O)N[C@@H](CC(N)=O)C(=O)N[C@@H]([C@@H](C)O)C(=O)N[C@@H](C)C(=O)N[C@@H]([C@@H](C)O)C(=O)N1)[C@@H](C)O)C(=O)N1CCC[C@H]1C(=O)N[C@@H](CO)C(=O)N[C@@H](CO)C(=O)N[C@H](C(=O)N1CCC[C@H]1C(=O)N[C@H](C(=O)NCC(=O)N[C@@H](CO)C(=O)N[C@@H](Cc1c[nH]cn1)C(=O)N[C@H](C(=O)N[C@@H](Cc1ccc(O)cc1)C(N)=O)[C@@H](C)O)C(C)C)[C@@H](C)O
notes: h-amylin derivative; disulfide bridge and C-terminal amide as told for human amylin; also called compound 57
B5: N^ε1-[2-[2-[2-[[(4S)-4-carboxy-4-(19-carboxynonadecanoylamino)butanoyl]amino]ethoxy]ethoxy]acetyl]-[Arg17,Pro21,Pro27,Pro29,Pro31]-h-amylin (peptide)
peptide: K([AEEA-γGlu-C20 diacid])CNTATCATQRLANFLRHSSPNFGAIPSPTPVGSNTY-NH2
modifications: disulfide 2-7; N-terminus assumed
SMILES: CC[C@H](C)[C@H](NC(=O)[C@H](C)NC(=O)CNC(=O)[C@H](Cc1ccccc1)NC(=O)[C@H](CC(N)=O)NC(=O)[C@@H]1CCCN1C(=O)[C@H](CO)NC(=O)[C@H](CO)NC(=O)[C@H](Cc1c[nH]cn1)NC(=O)[C@H](CCCNC(=N)N)NC(=O)[C@H](CC(C)C)NC(=O)[C@H](Cc1ccccc1)NC(=O)[C@H](CC(N)=O)NC(=O)[C@H](C)NC(=O)[C@H](CC(C)C)NC(=O)[C@H](CCCNC(=N)N)NC(=O)[C@H](CCC(N)=O)NC(=O)[C@@H](NC(=O)[C@H](C)NC(=O)[C@@H]1CSSC[C@H](NC(=O)[C@@H](N)CCCCNC(=O)COCCOCCNC(=O)CC[C@H](NC(=O)CCCCCCCCCCCCCCCCCCC(=O)O)C(=O)O)C(=O)N[C@@H](CC(N)=O)C(=O)N[C@@H]([C@@H](C)O)C(=O)N[C@@H](C)C(=O)N[C@@H]([C@@H](C)O)C(=O)N1)[C@@H](C)O)C(=O)N1CCC[C@H]1C(=O)N[C@@H](CO)C(=O)N1CCC[C@H]1C(=O)N[C@H](C(=O)N1CCC[C@H]1C(=O)N[C@H](C(=O)NCC(=O)N[C@@H](CO)C(=O)N[C@@H](CC(N)=O)C(=O)N[C@H](C(=O)N[C@@H](Cc1ccc(O)cc1)C(N)=O)[C@@H](C)O)C(C)C)[C@@H](C)O
notes: h-amylin derivative; disulfide bridge and C-terminal amide as told for human amylin; also called compound 54
B6: N^ε1-[2-[2-[2-[[(4S)-4-carboxy-4-(19-carboxynonadecanoylamino)butanoyl]amino]ethoxy]ethoxy]acetyl]-[Arg17,Pro21,Pro27,Pro34,His35]-h-amylin (peptide)
peptide: K([AEEA-γGlu-C20 diacid])CNTATCATQRLANFLRHSSPNFGAIPSSTNVGPHTY-NH2
modifications: disulfide 2-7; N-terminus assumed
SMILES: CC[C@H](C)[C@H](NC(=O)[C@H](C)NC(=O)CNC(=O)[C@H](Cc1ccccc1)NC(=O)[C@H](CC(N)=O)NC(=O)[C@@H]1CCCN1C(=O)[C@H](CO)NC(=O)[C@H](CO)NC(=O)[C@H](Cc1c[nH]cn1)NC(=O)[C@H](CCCNC(=N)N)NC(=O)[C@H](CC(C)C)NC(=O)[C@H](Cc1ccccc1)NC(=O)[C@H](CC(N)=O)NC(=O)[C@H](C)NC(=O)[C@H](CC(C)C)NC(=O)[C@H](CCCNC(=N)N)NC(=O)[C@H](CCC(N)=O)NC(=O)[C@@H](NC(=O)[C@H](C)NC(=O)[C@@H]1CSSC[C@H](NC(=O)[C@@H](N)CCCCNC(=O)COCCOCCNC(=O)CC[C@H](NC(=O)CCCCCCCCCCCCCCCCCCC(=O)O)C(=O)O)C(=O)N[C@@H](CC(N)=O)C(=O)N[C@@H]([C@@H](C)O)C(=O)N[C@@H](C)C(=O)N[C@@H]([C@@H](C)O)C(=O)N1)[C@@H](C)O)C(=O)N1CCC[C@H]1C(=O)N[C@@H](CO)C(=O)N[C@@H](CO)C(=O)N[C@H](C(=O)N[C@@H](CC(N)=O)C(=O)N[C@H](C(=O)NCC(=O)N1CCC[C@H]1C(=O)N[C@@H](Cc1c[nH]cn1)C(=O)N[C@H](C(=O)N[C@@H](Cc1ccc(O)cc1)C(N)=O)[C@@H](C)O)C(C)C)[C@@H](C)O
notes: h-amylin derivative; disulfide bridge and C-terminal amide as told for human amylin; also called compound 58
B7: N^ε1-[2-[2-[2-[[(4S)-4-carboxy-4-(19-carboxynonadecanoylamino)butanoyl]amino]ethoxy]ethoxy]acetyl]-[Arg17,Pro21,Pro27,Pro28,Pro34]-h-amylin (peptide)
peptide: K([AEEA-γGlu-C20 diacid])CNTATCATQRLANFLRHSSPNFGAIPPSTNVGPNTY-NH2
modifications: disulfide 2-7; N-terminus assumed
SMILES: CC[C@H](C)[C@H](NC(=O)[C@H](C)NC(=O)CNC(=O)[C@H](Cc1ccccc1)NC(=O)[C@H](CC(N)=O)NC(=O)[C@@H]1CCCN1C(=O)[C@H](CO)NC(=O)[C@H](CO)NC(=O)[C@H](Cc1c[nH]cn1)NC(=O)[C@H](CCCNC(=N)N)NC(=O)[C@H](CC(C)C)NC(=O)[C@H](Cc1ccccc1)NC(=O)[C@H](CC(N)=O)NC(=O)[C@H](C)NC(=O)[C@H](CC(C)C)NC(=O)[C@H](CCCNC(=N)N)NC(=O)[C@H](CCC(N)=O)NC(=O)[C@@H](NC(=O)[C@H](C)NC(=O)[C@@H]1CSSC[C@H](NC(=O)[C@@H](N)CCCCNC(=O)COCCOCCNC(=O)CC[C@H](NC(=O)CCCCCCCCCCCCCCCCCCC(=O)O)C(=O)O)C(=O)N[C@@H](CC(N)=O)C(=O)N[C@@H]([C@@H](C)O)C(=O)N[C@@H](C)C(=O)N[C@@H]([C@@H](C)O)C(=O)N1)[C@@H](C)O)C(=O)N1CCC[C@H]1C(=O)N1CCC[C@H]1C(=O)N[C@@H](CO)C(=O)N[C@H](C(=O)N[C@@H](CC(N)=O)C(=O)N[C@H](C(=O)NCC(=O)N1CCC[C@H]1C(=O)N[C@@H](CC(N)=O)C(=O)N[C@H](C(=O)N[C@@H](Cc1ccc(O)cc1)C(N)=O)[C@@H](C)O)C(C)C)[C@@H](C)O
notes: h-amylin derivative; disulfide bridge and C-terminal amide as told for human amylin; also called compound 55

Molecular target: T1, human amylin 3(a) receptor (human …)
Assay: cell-based or functional assay

| Binder | Ratio hCT/hAmylin funct. | hAmylin-R funct. EC50 [pM] |
| --- | --- | --- |
| B1 | 8.9 | – |
| B2 | 9.8 | – |
| B3 | 5 | 102 |
| B4 | – | 89 |
| B5 | 9.6 | – |
| B6 | – | 47 |
| B7 | – | 68 |

Molecular target: T2, human calcitonin receptor
Assay: cell-based or functional assay

| Binder | hCTR funct. EC50 [pM] |
| --- | --- |
| B1 | 3430 |
| B2 | 625 |
| B3 | 506 |
| B4 | 3120 |
| B5 | 987 |
| B6 | 1030 |
| B7 | 731 |
